In PMC9018821, “Heterozygous variants in GATA2 contribute to DCML deficiency in mice by disrupting tandem protein binding” (Communications Biology, 2022):

B1: murine GATA2 finger region containing the NF and CF domains (289 aa to 480 aa), wild type, MBP-fused or GST-fused (domain or fragment)
chain: not shown
notes: GATA2, murine, finger region containing the NF and CF domains, residues 289-480; Two differently tagged copies of the same stretch were used; Each copy carries ONE carrier: MBP-fused (bait on amylose beads) or GST-fused (prey in a1, bait on glutathione beads in a2); They are kept as one molecule because the protein is tested against itself; also called G2^WT; MBP-fused G2^WT
B2: murine GATA2 finger region (289 aa to 480 aa) with R398W, GST-fused or MBP-fused (domain or fragment)
chain: not shown
notes: GATA2, murine, finger region containing the NF and CF domains, residues 289-480, with the patient mutation R398W; Each copy carries ONE carrier: GST-fused in a1 (prey), MBP-fused in a2 (prey); The mutation corresponds to a human germline GATA2 mutation found in patients; also called G2^R398W; GST-fused G2^R398W
B3: murine GATA2 finger region (289 aa to 480 aa) with T354M, GST-fused or MBP-fused (domain or fragment)
chain: not shown
notes: GATA2, murine, finger region containing the NF and CF domains, residues 289-480, with the patient mutation T354M; Each copy carries ONE carrier: GST-fused in a1 (prey), MBP-fused in a2 (prey); The mutation is a germline GATA2 mutation found in patients; also called G2^T354M; GST-fused G2^T354M

Tests used:
[1] = biological target: the molecule itself; experiment: pull-down; recombinant MBP-fused bait mixed with GST-fused prey in binding buffer at room temperature; complexes purified with amylose magnetic beads; immunoblot with anti-GST and anti-MBP
[2] = biological target: B1; experiment: as above; settings: both partners purified

## B1
[1]
  binding result: binds

## B2
[2]
  binding result: binds

## B3
[2]
  binding result: binds
